In PMC7658486:

Target: rainbow trout IL-2 (IL-2A), FLAG-tagged, from insect cells (rainbow trout (Oncorhynchus mykiss))
Experiment: SEC; Superose 12 column, PBS (-), 0.5 ml/min, 10-15 μg protein purified from insect cell supernatant; calibrated with standard proteins

stoichiometry N: 2
Substance: rainbow trout IL-2 (IL-2A), FLAG-tagged, from insect cells (ligand)
